Values joined by “and” are separate entries in the source; they are usually repeats but may differ in a detail not shown here. Equal values may be shown once.
How the values were obtained:
Eotaxin 3 = target: T1, Eotaxin 3 (Homo sapiens, UniProt Q9Y258); test: Micro-array analysis of chemokine binding peptides: Eotaxin 3; details: limit = start of the upper 75% of that peptide's response range
T1 construct: purchased 300-48
T1 sequence (Q9Y258 24-94): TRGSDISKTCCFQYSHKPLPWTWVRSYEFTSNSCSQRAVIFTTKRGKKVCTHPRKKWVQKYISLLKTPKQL
Protocol: (§1) (1) Printing: Chemokine (CK) solution (in water) was serially diluted with Print Reagent (GenTel BioSurfaces USA) to final concentrations of 50 μg and 25 μg/ml. BSA/BSA-Biotin control solutions (in water) were diluted with Print Reagent to 100 μg/ml. Amplified stock of M13 phage control (M13KEgIII Cloning Vector, New England Biolabs, Cat.No.E8101S) was stored in Tris Buffered Saline (TBS; pH7.5, 4° C.) and diluted with Print Reagent to the working titre (10^8 pfu/μl). An automated spotting robot (16 pin print tool, 0.4 mm head; BioRobotics, UK) was used to print the CK/BSA control/M13 control, 5 repeats per sample (CK 25 μg/ml and 50 μg/ml; BSA 100 μg/ml; M13 20 μl), on PATH Protein Microarray Slides (GenTel, Prod.No. 2-1005/-1025) at […], and 50-70% relative humidity. Printed micro-array slides were stored at Room Temperature (RT) or 4° C. for at least 24 h before use.
(§2) (2) Blocking: Block Buffer (500 μl/partition; PATHblock, GenTel, Prod.No. 2-1014) was applied to the slide for 1 hour at room temp (RT). After removal of Block Buffer, the slide was air dried for 25 minutes;
(§3) (3) Phage Presented Peptide Binding: Amplified recombinant phage stock was stored in TBS and diluted with Wash Buffer to working titer (10^7 pfu/μl). Recombinant phage suspension (300 μl) was applied per partition and incubated at RT for 1 hour with gentle agitation.
(§4) (4) First Washing: The slides were washed twice with Wash Buffer 300 μl/partition).
(§5) (5) Primary Antibody (Ab) Labeling: The slides were incubated with the Primary Ab (1 mg/ml diluted ×2500 (Wash Reagent), 300 μl; Mouse Anti-M13 monoclonal Ab; Amersham Biosciences, UK; Product Code 27-9420-01) for 45 minutes at RT.
(§6) (6) Second Washing: The slides were washed twice with Wash Buffer (300 μl/partition).
(§7) (7) Secondary Ab Labeling: The slides were incubated with Secondary Ab (1.5 mg/ml diluted ×5000 (Wash Reagent), 300 μl; Cy3-conjugated AffiniPure Goat Anti-Mouse IgG; Jackson ImmunoReserch Labs, USA; Product Code 115-165-062).
(§8) (8) Third Washing: The slides were washed twice with Wash Buffer (300 μl/partition).
(§9) (9) Rinse: the slides were rinsed twice with Rinse Buffer (PATHrinse, GenTel, Prod.No. 2-1018) then dried well.
(§10) (10) Scanning: The peptide-bound, labeled slide was scanned (Laser Intensity 80%, Gain 80%, Resolution 10 μm) with a ScanArray Life Scanner (Packard BioChip Technologies, USA).
(§11) (11) Analysis: Quantitative analysis of micro-array was performed by the SpotReader program of Niles Scientific (USA) and presented as Relative Fluorescence (RF) as a function of CK concentration. Micro-array readout (Cy3 fluorescence) was quantified to determine the relative binding affinities of a CBP for the CKs and by inference, the specificity of the CBP for binding to a CK.

BCA-1 = target: T2, BCA-1 (Homo sapiens, UniProt O43927); test: Micro-array analysis of chemokine binding peptides: BCA-1
T2 construct: purchased 300-47
T2 sequence (O43927 23-109): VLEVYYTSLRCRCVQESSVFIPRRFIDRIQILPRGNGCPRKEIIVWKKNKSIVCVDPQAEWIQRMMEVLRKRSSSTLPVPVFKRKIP
Protocol: as §1, §2, §3, §4, §5, §6, §7, §8, §9, §10, §11

TECK = target: T3, TECK (Homo sapiens, UniProt O15444); test: Micro-array analysis of chemokine binding peptides: TECK
T3 construct: purchased 300-45
T3 sequence (O15444 24-150): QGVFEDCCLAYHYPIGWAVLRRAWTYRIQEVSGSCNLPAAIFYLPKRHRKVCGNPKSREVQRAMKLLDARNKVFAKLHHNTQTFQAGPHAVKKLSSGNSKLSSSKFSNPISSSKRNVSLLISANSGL
Protocol: as §1, §2, §3, §4, §5, §6, §7, §8, §9, §10, §11

Lymphotactin = target: T4, Lymphotactin (Homo sapiens, UniProt P47992); test: Micro-array analysis of chemokine binding peptides: Lymphotactin; details: limit = start of the upper 75% of that peptide's response range
T4 construct: purchased 300-20
T4 sequence (P47992 22-114): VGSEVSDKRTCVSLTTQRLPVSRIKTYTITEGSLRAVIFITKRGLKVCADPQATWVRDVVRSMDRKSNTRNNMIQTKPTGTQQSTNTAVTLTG
Protocol: as §1, §2, §3, §4, §5, §6, §7, §8, §9, §10, §11

[1] = test system: Adjuvant-Induced Arthritis (AIA) rats; test: Adjuvant Induced Arthritis (AIA) rat model, Clinical Score; format: in vivo
Protocol: Peptides were tested in a rat model of AIA for their anti-inflammatory effects.
Disease Induction: AIA was induced in female Lewis rats aged 7-8 weeks by injection of heat-killed Mycobacerioum tuberculosis (Mt strain H37Ra, Difco Laboratories, USA) dispersed in incomplete Freund's adjuvant to a final concentration of 10 mg/ml (100 μl) at the base of the tail on day 0.
Measurement: Clinical Score (CS, 0-4) for each limb based on (a) joint inflammation, (b) redness, (c) deformity.
Efficacy Protocol 1 (5 rats per group). Peptide/control compound was injected intra-peritoneally (IP, 200 μl) on days 7-11 and 14-18.
Rats were sacrificed (CO2 inhalation) on day 43.
Efficacy Protocol 2 (8 rats per group). Group 1: peptide/PBS was injected intra-peritoneally (IP, 200 μl) on days 7-18; Group 2: PBS was injected IP on days 7-18; Group 3: Dexamethasone (Dexa) was injected IP on days 11 (Clinical Score (CS)1) and 13. Rats were sacrificed on day 43.
Combination Efficacy Protocol 1 (8 rats per group). Group 1: peptide injected IP on days 7-18; Group 2: PBS injected IP on days 7-18; Group 3: Dexa injected IP on day 11 (CS 1) and day 13; Group 4: Dexa injected IP on days 11 and 13 then peptide injected on days 14-22; Group 5: Dexa injected IP on days 11 and 13 then PBS injected on days 14-22.
(§12) Combination Efficacy Protocol 2 (8 rats per group). Group 1: peptide injected IP on days 7-18; Group 2: PBS injected IP on days 7-18; Group 3: Dexa injected IP on day 11 (CS 1) and day 13 then PBS on days 14-22; Group 4: PBS injected IP on days 7-10,12,14; Dexa injected on days 11, 13. Peptide injected on days 15-19.
as §12, with “Protocol 3” for “Protocol 2”, “4: peptide” for “4: PBS”
Control Reagents for Adjuvant Induced Arthritis: Anti-Inflammatory Control: Dexamethasone Sodium Phosphate (Dexacort Forte, Teva) was dissolved in Phosphate Buffer Saline (PBS, GIBCO) to a final concentration of 1 mg/ml and injected in 200 μl (200 μg).
Negative Control: Phosphate Buffer Saline (PBS).

IL-8 = test: Micro-array analysis of chemokine binding peptides: IL-8; details: limit = start of the upper 75% of that peptide's response range
Sequence of IL-8 (P10145 28-99 limits assumed): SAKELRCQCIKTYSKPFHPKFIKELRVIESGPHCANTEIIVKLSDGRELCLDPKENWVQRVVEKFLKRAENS
Protocol: as §1, §2, §3, §4, §5, §6, §7, §8, §9, §10, §11

Mig = target: T5, Mig (Homo sapiens, UniProt Q07325); test: Micro-array analysis of chemokine binding peptides: Mig; details: limit = start of the upper 75% of that peptide's response range
T5 construct: purchased 300-26
T5 sequence (Q07325 23-125): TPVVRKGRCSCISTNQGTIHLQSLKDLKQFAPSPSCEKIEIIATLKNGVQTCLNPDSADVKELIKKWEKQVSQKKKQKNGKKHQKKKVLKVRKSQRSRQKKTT
Protocol: as §1, §2, §3, §4, §5, §6, §7, §8, §9, §10, §11

I-TAC = target: T6, I-TAC (Homo sapiens, UniProt O14625); test: Micro-array analysis of chemokine binding peptides: I-TAC; details: limit = start of the upper 75% of that peptide's response range
T6 construct: purchased 300-46
T6 sequence (O14625 22-94): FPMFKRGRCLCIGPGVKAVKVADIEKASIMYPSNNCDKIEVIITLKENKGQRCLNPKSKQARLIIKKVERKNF
Protocol: as §1, §2, §3, §4, §5, §6, §7, §8, §9, §10, §11

I-309 = target: T7, I-309 (Homo sapiens, UniProt P22362); test: Micro-array analysis of chemokine binding peptides: I-309; details: limit = start of the upper 75% of that peptide's response range
T7 construct: purchased 300-37
T7 sequence (P22362 24-96): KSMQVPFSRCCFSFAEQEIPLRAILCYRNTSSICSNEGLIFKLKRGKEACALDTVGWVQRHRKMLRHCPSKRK
Protocol: as §1, §2, §3, §4, §5, §6, §7, §8, §9, §10, §11

MCP-2 = target: T8, MCP-2 (Homo sapiens, UniProt P80075); test: Micro-array analysis of chemokine binding peptides: MCP-2; details: limit = start of the upper 75% of that peptide's response range
T8 construct: purchased 300-15
T8 sequence (P80075 24-99): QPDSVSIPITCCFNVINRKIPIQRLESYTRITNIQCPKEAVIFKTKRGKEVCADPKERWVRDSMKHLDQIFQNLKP
Protocol: as §1, §2, §3, §4, §5, §6, §7, §8, §9, §10, §11

MCP-4 = target: T9, MCP-4 (Homo sapiens, UniProt Q99616); test: Micro-array analysis of chemokine binding peptides: MCP-4; details: limit = start of the upper 75% of that peptide's response range
T9 construct: purchased 300-24
T9 sequence (Q99616 17-98): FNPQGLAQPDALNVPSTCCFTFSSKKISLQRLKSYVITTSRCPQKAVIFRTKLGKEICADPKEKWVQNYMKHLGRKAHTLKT
Protocol: as §1, §2, §3, §4, §5, §6, §7, §8, §9, §10, §11

SDF1-β = target: T10, SDF1-β (Homo sapiens, UniProt P48061); test: Micro-array analysis of chemokine binding peptides: SDF1-β
T10 construct: purchased 300-28b
T10 sequence (P48061 22-93): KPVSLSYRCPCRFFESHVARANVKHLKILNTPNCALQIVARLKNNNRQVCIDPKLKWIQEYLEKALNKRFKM
Protocol: as §1, §2, §3, §4, §5, §6, §7, §8, §9, §10, §11

Fractalkine = target: T11, Fractalkine (Homo sapiens, UniProt P78423); test: Micro-array analysis of chemokine binding peptides: Fractalkine
T11 construct: purchased 300-31
T11 sequence (P78423 25-100 limits assumed): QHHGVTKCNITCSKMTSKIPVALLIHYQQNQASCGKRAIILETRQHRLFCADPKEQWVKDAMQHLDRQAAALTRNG
Protocol: as §1, §2, §3, §4, §5, §6, §7, §8, §9, §10, §11

[2] = limit = start of the upper 75% of that peptide's response range
[3] = Dexa 200 μg IP on days 11 and 13

Row | binding to Eotaxin 3 with relatively high affinity (Relative Fluorescence Units) (Eotaxin 3) | binding to BCA-1 with relatively high affinity (Relative Fluorescence Units) (BCA-1; [2]) | binding to TECK with relatively high affinity (Relative Fluorescence Units) (TECK; [2]) | binding to Lymphotactin with relatively high affinity (Relative Fluorescence Units) (Lymphotactin) | binding to IL-8 with relatively high affinity (Relative Fluorescence Units) (IL-8) | binding to Mig with relatively high affinity (Relative Fluorescence Units) (Mig) | binding to I-TAC with relatively high affinity (Relative Fluorescence Units) (I-TAC) | binding to I-309 with relatively high affinity (Relative Fluorescence Units) (I-309) | binding to MCP-2 with relatively high affinity (Relative Fluorescence Units) (MCP-2) | binding to MCP-4 with relatively high affinity (Relative Fluorescence Units) (MCP-4) | binding to SDF1-β, stated in words (SDF1-β) | binding to BCA-1, stated in words (BCA-1) | binding to TECK, stated in words (TECK) | binding to Fractalkine, stated in words (Fractalkine) | Substance | day by which inflammation approached / was comparable with the disease, untreated group [1, 3] | day from which inflammation increased (onset of inflammation) [1, 3] | day until which inflammation was at the base line ([1]; Dexa IP on days 7-11 and 14-18, afterwards rose almost to the untreated, disease group) [days] | maximal anti-inflammatory effect ([1]; 25 μg IP on days 7-18) [%]
1 | > 15,000 RFU | > 15,000 RFU | > 15,000 RFU | > 15,000 RFU |  |  |  |  |  |  |  |  |  |  | GNAMCK (listed as Homo sapiens) [Ph-p8.1] |  |  |  | 
2 |  |  |  |  |  |  |  |  |  |  |  |  |  |  | Dexamethasone Sodium Phosphate [reference compound] | 21 days and 28 days | 15 days and 14 days | 24 | 
3 | > 15,000 RFU |  |  |  | > 15,000 RFU | > 15,000 RFU | > 15,000 RFU | > 15,000 RFU | > 15,000 RFU | > 15,000 RFU | bound | bound | bound | bound | WVFGVHFCK [Ph-p8.77] |  |  |  | 23

From patent publication US12072338B2, “Pharmaceutical peptides for the treatment of inflammatory diseases” (PROTAGONISTS LTD., priority 2007, dated 2024)
